Assay results as given in paper PMC7366381.

Substrate: O=CO
Test: purified protein
Settings: 1 mM benzyl viologen, pH 7.5, 25 °C, anaerobic, buffer 50 mM phosphate or 25 mM MES/TAPS/HEPES/K acetate (Figure 3 legend)

B1: EcFDH-H (FDH) (Escherichia coli K-12) (protein)
chain: MKKVVTVCPYCASGCKINLVVDNGKIVRAEAAQGKTNQGTLCLKGYYGWDFINDTQILTPRLKTPMIRRQRGGKLEPVSWDEALNYVAERLSAIKEKYGPDAIQTTGSSRGTGNETNYVMQKFARAVIGTNNVDCCARVUHGPSVAGLHQSVGNGAMSNAINEIDNTDLVFVFGYNPADSHPIVANHVINAKRNGAKIIVCDPRKIETARIADMHIALKNGSNIALLNAMGHVIIEENLYDKAFVASRTEGFEEYRKIVEGYTPESVEDITGVSASEIRQAARMYAQAKSAAILWGMGVTQFYQGVETVRSLTSLAMLTGNLGKPHAGVNPVRGQNNVQGACDMGALPDTYPGYQYVKDPANREKFAKAWGVESLPAHTGYRISELPHRAAHGEVRAAYIMGEDPLQTDAELSAVRKAFEDLELVIVQDIFMTKTASAADVILPSTSWGEHEGVFTAADRGFQRFFKAVEPKWDLKTDWQIISEIATRMGYPMHYNNTQEIWDELRHLCPDFYGATYEKMGELGFIQWPCRDTSDADQGTSYLFKEKFDTPNGLAQFFTCDWVAPIDKLTDEYPMVLSTVREVGHYSCRSMTGNCAALAALADEPGYAQINTEDAKRLGIEDEALVWVHSRKGKIITRAQVSDRPNKGAIYMTYQWWIGACNELVTENLSPITKTPEYKYCAVRVEPIADQRAAEQYVIDEYNKLKTRLREAALA
Km (labelled compound): 158 ± 8 µM
Km (two highest formate points neglected in fit): 58 ± 8 µM
